From paper doi:10.1101/2024.05.02.592261 come the findings set out here.

Values joined by “and” are separate entries in the source; they are usually repeats but may differ in a detail not shown here. Equal values may be shown once.

The experiment addresses His-EutM (UniProt P41791). Description: pull-down.
Sequence of UniProt P41791 (P41791 whole entry): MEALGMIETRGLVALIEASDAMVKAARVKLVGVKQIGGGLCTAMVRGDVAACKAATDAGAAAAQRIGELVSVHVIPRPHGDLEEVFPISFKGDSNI

Take SnoopT-EutM-SpyT: the molar ratio of His-EutM to dual-modified EutM in the purified hybrid scaffold is 3.3 :1 and 7.6 :1.

As to SpyC-EutM-SnoopC, the molar ratio of His-EutM to dual-modified EutM in the purified hybrid scaffold was 3.9 :1 and 8.8 :1.
